B2: Angptl2-FLAG, full-length human Angptl2 secreted from transfected 293T cells (ligand)
chain: QEDGFEGTEEGSPREFIYLNRYKRAGESQDKCTYTFIVPQQRVTGAICVNSKEPEVLLENRVHKQELELLNNELLKQKRQIETLQQLVEVDGGIVSEVKLLRKESRNMNSRVTQLYMQLLHEIIRKRDNALELSQLENRILNQTADMLQLASKYKDLEHKYQHLATLAHNQSEIIAQLEEHCQRVPSARPVPQPPPAAPPRVYQPPTYNRIINQISTNEIQSDQNLKVLPPPLPTMPTLTSLPSSTDKPSGPWRDCLQALEDGHDTSSIYLVKPENTNRLMQVWCDQRHDPGGWTVIQRRLDGSVNFFRNWETYKQGFGNIDGEYWLGLENIYWLTNQGNYKLLVTMEDWSGRKVFAEYASFRLEPESEYYKLRLGRYHGNAGDSFTWHNGKQFTTLDRDHDVYTGNCAHYQKGGWWYNACAHSNLNGVWYRGGHYRSRYQDGVYWAEFRGGSYSLKKVVMMIRPNPNTFH
notes: Runs partly as a high molecular weight (>250 kD) multimer; also called full-length Angptl2; FLAG-tagged Angptl2; not shown: FLAG tag at the C terminus

Experiments:
[1] = target: B2; experiment: flow cytometry, Angptl2 on 293T cells expressing the domain
Description: (§1) Flow cytometry. […] Cells were harvested at 48 h for analysis. […] Anti-LILRB2-PE was used as indicated. Cells were analyzed using either a FACSCalibur or FACSAria instrument (Becton Dickinson).
LILRB2 contains four extracellular immunoglobulin (Ig)-like domains. Takai et al., J Biomed Biotechnol. 2011; 2011:275302. […] To test this hypothesis, a number of domain and site-specific mutations of LILRB2 were generated for the flow cytometry-based cell surface ligand binding assay and chimeric reporter assay.

[2] = target: T1, full-length LILRB2 G94D on 293T cells (human, UniProt Q8N423 22-597); experiment: flow cytometry, Angptl2 on 293T cells expressing mutant LILRB2
T1 construct: also called single mutation in G94
Description: as §1

[3] = target: T2, full-length LILRB2 R95E on 293T cells (human, UniProt Q8N423 22-597); experiment: as above
T2 construct: also called single mutation in R95
Description: as §1

[4] = target: T3, full-length LILRB2 Y96A on 293T cells (human, UniProt Q8N423 22-597); experiment: as above
T3 construct: also called single mutation in Y96
Description: as §1

[5] = target: T4, full-length LILRB2 with mutations in AA 92-100 (Mut-8 aa) (human); experiment: as above
T4 construct: also called the full-length LILRB2 with the same mutation
Description: as §1

[6] = target: B2; experiment: flow cytometry, Angptl2 on 293T cells expressing the mutant
Description: as §1

[7] = target: T5, human LILRB2, wild-type full-length, on cells (human, UniProt Q8N423 22-597); experiment: flow cytometry, human cord blood mononuclear cells, anti-FLAG-APC and anti-human LILRB2-PE
T5 construct: the assay field says which; also called WT LILRB2; full-length LILRB2
Description: as §1

[8] = target: T5, human LILRB2, wild-type full-length, on …; experiment: flow cytometry, LILRB2 on 293T cells

B1: LILRB2 Ig4 domain expressed on 293T cells (receptor)
chain: IRGTPFISVQPGPTVASGENVTLLCQSWRQFHTFLLTKAGAADAPLRLRSIHEYPKYQAEFPMSPVTSAHAGTYRCYGSLNSDPYLLSHPSEPLELVVSGPSMGSSPPPTGPISTPGPEDQPLTPTGSDPQSGLGRHL
notes: The range is stated for the chimeric reporter constructs; also called 4th Ig domain
**Q.** Does B1 bind [1]?
**A.** Result: no binding

**Q.** Which “reduction of Angptl2 binding” value [2] does the source give for B2 here?
**A.** The value was 50%.

**Q.** What about the “reduction of Angptl2 binding” value [3] of the same binder?
**A.** The value was 50%.

**Q.** And the “reduction of Angptl2 binding” value [4]?
**A.** Its value is 50%.

**Q.** And the “decrease of Angptl2 binding relative to the wild-type protein” value [5]?
**A.** Its value is greater than 50%.

B3: full-length LILRB2 Y96A/G392D on 293T cells (receptor)
chain: QTGTIPKPTLWAEPDSVITQGSPVTLSCQGSLEAQEYRLYREKKSASWITRIRPELVKNGQFHIPSITWEHTGRAGCQYYSRARWSELSDPLVLVMTGAYPKPTLSAQPSPVVTSGGRVTLQCESQVAFGGFILCKEGEEEHPQCLNSQPHARGSSRAIFSVGPVSPNRRWSHRCYGYDLNSPYVWSSPSDLLELLVPGVSKKPSLSVQPGPVVAPGESLTLQCVSDVGYDRFVLYKEGERDLRQLPGRQPQAGLSQANFTLGPVSRSYGGQYRCYGAHNLSSECSAPSDPLDILITGQIRGTPFISVQPGPTVASGENVTLLCQSWRQFHTFLLTKAGAADAPLRLRSIHEYPKYQAEFPMSPVTSAHADTYRCYGSLNSDPYLLSHPSEPLELVVSGPSMGSSPPPTGPISTPGPEDQPLTPTGSDPQSGLGRHLGVVIGILVAVVLLLLLLLLLFLILRHRRQGKHWTSTQRKADFQHPAGAVGPEPTDRGLQWRSSPAADAQEENLYAAVKDTQPEDGVEMDTRAAASEAPQDVTYAQLHSLTLRRKATEPPPSQEREPPAEPSIYATLAIH
notes: also called Y96A combined with G392D
**Q.** Does B3 bind [6]?
**A.** Result: no binding

B4: full-length LILRB2 Y96A/Y394A on 293T cells (receptor)
chain: QTGTIPKPTLWAEPDSVITQGSPVTLSCQGSLEAQEYRLYREKKSASWITRIRPELVKNGQFHIPSITWEHTGRAGCQYYSRARWSELSDPLVLVMTGAYPKPTLSAQPSPVVTSGGRVTLQCESQVAFGGFILCKEGEEEHPQCLNSQPHARGSSRAIFSVGPVSPNRRWSHRCYGYDLNSPYVWSSPSDLLELLVPGVSKKPSLSVQPGPVVAPGESLTLQCVSDVGYDRFVLYKEGERDLRQLPGRQPQAGLSQANFTLGPVSRSYGGQYRCYGAHNLSSECSAPSDPLDILITGQIRGTPFISVQPGPTVASGENVTLLCQSWRQFHTFLLTKAGAADAPLRLRSIHEYPKYQAEFPMSPVTSAHAGTARCYGSLNSDPYLLSHPSEPLELVVSGPSMGSSPPPTGPISTPGPEDQPLTPTGSDPQSGLGRHLGVVIGILVAVVLLLLLLLLLFLILRHRRQGKHWTSTQRKADFQHPAGAVGPEPTDRGLQWRSSPAADAQEENLYAAVKDTQPEDGVEMDTRAAASEAPQDVTYAQLHSLTLRRKATEPPPSQEREPPAEPSIYATLAIH
notes: also called Y96A combined with Y394A
**Q.** Does B4 bind [6]?
**A.** Result: no binding

B5: fibrinogen-like domain (FBN) of Angptl2, FLAG-tagged (ligand)
chain: DKPSGPWRDCLQALEDGHDTSSIYLVKPENTNRLMQVWCDQRHDPGGWTVIQRRLDGSVNFFRNWETYKQGFGNIDGEYWLGLENIYWLTNQGNYKLLVTMEDWSGRKVFAEYASFRLEPESEYYKLRLGRYHGNAGDSFTWHNGKQFTTLDRDHDVYTGNCAHYQKGGWWYNACAHSNLNGVWYRGGHYRSRYQDGVYWAEFRGGSYSLKKVVMMIRPNPNTFH
notes: the whole Angptl2 entry is named; Migrates as a 37 kD monomer; also called FBN domain; fibrinogen domain; not shown: FLAG tag
**Q.** Does B5 bind [7]?
**A.** Result: no binding

B6: Angptl5-FLAG, secreted (ligand)
chain: NCVHHSTDSSVVNIVEDGSNAKDESKSNDTVCKEDCEESCDVKTKITREEKHFMCRNLQNSIVSYTRSTKKLLRNMMDEQQASLDYLSNQVNELMNRVLLLTTEVFRKQLDPFPHRPVQSHGLDCTDIKDTIGSVTKTPSGLYIIHPEGSSYPFEVMCDMDYRGGGWTVIQKRIDGIIDFQRLWCDYLDGFGDLLGEFWLGLKKIFYIVNQKNTSFMLYVALESEDDTLAYASYDNFWLEDETRFFKMHLGRYSGNAGDAFRGLKKEDNQNAMPFSTSDVDNDGCRPACLVNGQSVKSCSHLHNKTGWWFNECGLANLNGIHHFSGKLLATGIQWGTWTKNNSPVKIKSVSMKIRRMYNPYFK
notes: read as Angptl5; not shown: FLAG tag at the C terminus
**Q.** Does B6 bind [8]?
**A.** Result: binds

From patent publication US20170260508A1 (FRED HUTCHINSON CANCER RESEARCH CENTER, published 2017)
